{"source": "IntAct's records for PubMed 16306228", "parents": {"B1": {"name": "Serine/threonine-protein kinase SIK3 (Homo sapiens), Q9Y2K2 (parent)", "chain": "MAAAAASGAGGAAGAGTGGAGPAGRLLPPPAPGSPAAPAAVSPAAGQPRPPAPASRGPMPARIGYYEIDRTIGKGNFAVVKRATHLVTKAKVAIKIIDKTQLDEENLKKIFREVQIMKMLCHPHIIRLYQVMETERMIYLVTEYASGGEIFDHLVAHGRMAEKEARRKFKQIVTAVYFCHCRNIVHRDLKAENLLLDANLNIKIADFGFSNLFTPGQLLKTWCGSPPYAAPELFEGKEYDGPKVDIWSLGVVLYVLVCGALPFDGSTLQNLRARVLSGKFRIPFFMSTECEHLIRHMLVLDPNKRLSMEQICKHKWMKLGDADPNFDRLIAECQQLKEERQVDPLNEDVLLAMEDMGLDKEQTLQSLRSDAYDHYSAIYSLLCDRHKRHKTLRLGALPSMPRALAFQAPVNIQAEQAGTAMNISVPQVQLINPENQIVEPDGTLNLDSDEGEEPSPEALVRYLSMRRHTVGVADPRTEVMEDLQKLLPGFPGVNPQAPFLQVAPNVNFMHNLLPMQNLQPTGQLEYKEQSLLQPPTLQLLNGMGPLGRRASDGGANIQLHAQQLLKRPRGPSPLVTMTPAVPAVTPVDEESSDGEPDQEAVQSSTYKDSNTLHLPTERFSPVRRFSDGAASIQAFKAHLEKMGNNSSIKQLQQECEQLQKMYGGQIDERTLEKTQQQHMLYQQEQHHQILQQQIQDSICPPQPSPPLQAACENQPALLTHQLQRLRIQPSSPPPNHPNNHLFRQPSNSPPPMSSAMIQPHGAASSSQFQGLPSRSAIFQQQPENCSSPPNVALTCLGMQQPAQSQQVTIQVQEPVDMLSNMPGTAAGSSGRGISISPSAGQMQMQHRTNLMATLSYGHRPLSKQLSADSAEAHSLNVNRFSPANYDQAHLHPHLFSDQSRGSPSSYSPSTGVGFSPTQALKVPPLDQFPTFPPSAHQQPPHYTTSALQQALLSPTPPDYTRHQQVPHILQGLLSPRHSLTGHSDIRLPPTEFAQLIKRQQQQRQQQQQQQQQQEYQELFRHMNQGDAGSLAPSLGGQSMTERQALSYQNADSYHHHTSPQHLLQIRAQECVSQASSPTPPHGYAHQPALMHSESMEEDCSCEGAKDGFQDSKSSSTLTKGCHDSPLLLSTGGPGDPESLLGTVSHAQELGIHPYGHQPTAAFSKNKVPSREPVIGNCMDRSSPGQAVELPDHNGLGYPARPSVHEHHRPRALQRHHTIQNSDDAYVQLDNLPGMSLVAGKALSSARMSDAVLSQSSLMGSQQFQDGENEECGASLGGHEHPDLSDGSQHLNSSCYPSTCITDILLSYKHPEVSFSMEQAGV"}, "B2": {"name": "Serine/threonine-protein kinase SIK1 (Homo sapiens), P57059 (parent)", "chain": "MVIMSEFSADPAGQGQGQQKPLRVGFYDIERTLGKGNFAVVKLARHRVTKTQVAIKIIDKTRLDSSNLEKIYREVQLMKLLNHPHIIKLYQVMETKDMLYIVTEFAKNGEMFDYLTSNGHLSENEARKKFWQILSAVEYCHDHHIVHRDLKTENLLLDGNMDIKLADFGFGNFYKSGEPLSTWCGSPPYAAPEVFEGKEYEGPQLDIWSLGVVLYVLVCGSLPFDGPNLPTLRQRVLEGRFRIPFFMSQDCESLIRRMLVVDPARRITIAQIRQHRWMRAEPCLPGPACPAFSAHSYTSNLGDYDEQALGIMQTLGVDRQRTVESLQNSSYNHFAAIYYLLLERLKEYRNAQCARPGPARQPRPRSSDLSGLEVPQEGLSTDPFRPALLCPQPQTLVQSVLQAEMDCELQSSLQWPLFFPVDASCSGVFRPRPVSPSSLLDTAISEEARQGPGLEEEQDTQESLPSSTGRRHTLAEVSTRLSPLTAPCIVVSPSTTASPAEGTSSDSCLTFSASKSPAGLSGTPATQGLLGACSPVRLASPFLGSQSATPVLQAQGGLGGAVLLPVSFQEGRRASDTSLTQGLKAFRQQLRKTTRTKGFLGLNKIKGLARQVCQAPASRASRGGLSPFHAPAQSPGLHGGAAGSREGWSLLEEVLEQQRLLQLQHHPAAAPGCSQAPQPAPAPFVIAPCDGPGAAPLPSTLLTSGLPLLPPPLLQTGASPVASAAQLLDTHLHIGTGPTALPAVPPPRLARLAPGCEPLGLLQGDCEMEDLMPCSLGTFVLVQ"}}}
{"variants_of": "B1", "settings": "with 1433z_human YWHAZ"}
{"variant": "T221A", "effect of a mutation on the interaction": "decreasing interaction"}
{"variants_of": "B2", "settings": "with 1433z_human YWHAZ"}
{"variant": "T182A", "effect of a mutation on the interaction": "decreasing interaction"}
